In paper PMC9482650, “Quantitative fragmentomics allow affinity mapping of interactomes” (Nature Communications, 2022):

T1: APBA1_1, Q02410
T1 sequence (Q02410 651-752, limits assumed, looked up): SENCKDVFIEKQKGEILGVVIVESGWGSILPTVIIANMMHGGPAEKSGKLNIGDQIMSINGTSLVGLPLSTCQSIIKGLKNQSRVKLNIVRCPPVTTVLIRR

T2: APBA1_2, Q02410
T2 sequence (Q02410 742-832, limits assumed, looked up): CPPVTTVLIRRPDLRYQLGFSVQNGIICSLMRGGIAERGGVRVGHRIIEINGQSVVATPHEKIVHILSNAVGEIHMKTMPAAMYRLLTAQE

T3: ARHGAP21, Q5T5U3
T3 sequence (Q5T5U3 45-169, limits assumed, looked up): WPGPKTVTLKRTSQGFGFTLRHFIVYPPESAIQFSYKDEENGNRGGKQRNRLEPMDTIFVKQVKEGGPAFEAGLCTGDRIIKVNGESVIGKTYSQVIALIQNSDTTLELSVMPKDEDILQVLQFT

T4: DLG3_3, Q92796
T4 sequence (Q92796 374-475, limits assumed, looked up): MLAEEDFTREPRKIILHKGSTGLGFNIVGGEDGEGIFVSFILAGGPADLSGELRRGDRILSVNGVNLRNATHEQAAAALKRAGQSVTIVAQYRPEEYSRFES

T5: MPDZ_10, O75970
T5 sequence (O75970 1624-1722, limits assumed, looked up): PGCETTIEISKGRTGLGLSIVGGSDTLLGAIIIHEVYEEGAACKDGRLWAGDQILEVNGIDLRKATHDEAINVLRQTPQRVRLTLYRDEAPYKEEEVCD

T6: MPDZ_5, O75970
T6 sequence (O75970 695-796, limits assumed, looked up): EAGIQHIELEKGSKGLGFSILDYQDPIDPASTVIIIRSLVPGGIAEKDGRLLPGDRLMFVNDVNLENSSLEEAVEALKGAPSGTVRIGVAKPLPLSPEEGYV

T7: MPP7, Q5T2T1
T7 sequence (Q5T2T1 134-230, limits assumed, looked up): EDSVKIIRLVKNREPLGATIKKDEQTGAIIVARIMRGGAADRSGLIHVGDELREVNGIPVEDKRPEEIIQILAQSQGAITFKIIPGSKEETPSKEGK

T8: NHERF3_1, Q5T2W1
T8 sequence (Q5T2W1 4-100, limits assumed, looked up): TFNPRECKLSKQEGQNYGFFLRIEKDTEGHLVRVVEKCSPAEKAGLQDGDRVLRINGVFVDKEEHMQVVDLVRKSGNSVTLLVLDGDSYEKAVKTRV

T9: PDZD2_2, O15018
T9 sequence (O15018 329-429, limits assumed, looked up): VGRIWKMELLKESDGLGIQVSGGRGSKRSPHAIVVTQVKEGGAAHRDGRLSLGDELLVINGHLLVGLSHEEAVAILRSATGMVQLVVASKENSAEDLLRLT

T10: TX1BP3, O14907
T10 sequence (O14907 10-122, limits assumed, looked up): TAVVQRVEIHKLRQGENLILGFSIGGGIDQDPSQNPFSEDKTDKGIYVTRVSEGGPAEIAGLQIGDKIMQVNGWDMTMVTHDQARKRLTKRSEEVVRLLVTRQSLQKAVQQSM

B1: ABCA2, Q9BZC7 (peptide)
chain: QLSFNTDTLC
B2: PRKACA, P17612 (peptide)
chain: EKCGKEFSEF

These binders were tested against T1, APBA1_1, Q02410 (assay: holdup assay). Settings: plain residues with an end cap or a label only (N-terminal biotin on a linker: ado-ado).
Set-up: key: below the threshold = too weak to quantify, mostly under pKd 3.1 to 4

Binder | pKd
B1 | below the threshold
B2 | below the threshold

The binders below were run against T2, APBA1_2, Q02410 (assay: holdup assay). Settings: plain residues with an end cap or a label only (N-terminal biotin on a linker: ado-ado).
Set-up: key: below the threshold = too weak to quantify, mostly under pKd 3.1 to 4

Binder | pKd
B1 | below the threshold
B2 | below the threshold

The binders below were run against T3, ARHGAP21, Q5T5U3 (assay: holdup assay). Settings: plain residues with an end cap or a label only (N-terminal biotin on a linker: ado-ado).
Set-up: key: below the threshold = too weak to quantify, mostly under pKd 3.1 to 4

Binder | pKd
B1 | below the threshold
B2 | below the threshold

Each binder was assayed against T4, DLG3_3, Q92796 (assay: holdup assay). Settings: plain residues with an end cap or a label only (N-terminal biotin on a linker: ado-ado).
Set-up: key: below the threshold = too weak to quantify, mostly under pKd 3.1 to 4

Binder | pKd
B1 | below the threshold
B2 | below the threshold

The binders below were run against DLG4_1, P78352 (assay: holdup assay). Settings: plain residues with an end cap or a label only (N-terminal biotin on a linker: ado-ado).
Set-up: key: below the threshold = too weak to quantify, mostly under pKd 3.1 to 4

Sequence of DLG4_1, P78352 (P78352 62-152): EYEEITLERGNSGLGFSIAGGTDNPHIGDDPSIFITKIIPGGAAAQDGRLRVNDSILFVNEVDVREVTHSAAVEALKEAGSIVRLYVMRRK

Binder | pKd
B1 | 3.7
B2 | below the threshold

These binders were tested against GRID2IP_2, A4D2P6 (assay: holdup assay). Settings: plain residues with an end cap or a label only (N-terminal biotin on a linker: ado-ado).
Set-up: key: below the threshold = too weak to quantify, mostly under pKd 3.1 to 4

Sequence of GRID2IP_2, A4D2P6 (A4D2P6 272-370): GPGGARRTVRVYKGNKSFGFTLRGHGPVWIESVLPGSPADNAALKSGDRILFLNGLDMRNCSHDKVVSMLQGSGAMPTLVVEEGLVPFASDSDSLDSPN

Binder | pKd
B1 | below the threshold
B2 | below the threshold

The binders below were run against GRIP2_3, Q9C0E4 (assay: holdup assay). Settings: plain residues with an end cap or a label only (N-terminal biotin on a linker: ado-ado).
Set-up: key: below the threshold = too weak to quantify, mostly under pKd 3.1 to 4

Sequence of GRIP2_3, Q9C0E4 (Q9C0E4 238-339): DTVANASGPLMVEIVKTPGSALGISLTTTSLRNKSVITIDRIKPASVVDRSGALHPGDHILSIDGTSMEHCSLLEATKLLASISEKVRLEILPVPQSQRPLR

Binder | pKd
B1 | below the threshold
B2 | below the threshold

These binders were tested against GRIP2_5, Q9C0E4 (assay: holdup assay). Settings: plain residues with an end cap or a label only (N-terminal biotin on a linker: ado-ado).
Set-up: key: below the threshold = too weak to quantify, mostly under pKd 3.1 to 4

Sequence of GRIP2_5, Q9C0E4 (Q9C0E4 544-642): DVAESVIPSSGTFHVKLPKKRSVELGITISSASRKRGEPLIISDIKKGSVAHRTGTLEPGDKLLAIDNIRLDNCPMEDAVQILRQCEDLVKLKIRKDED

Binder | pKd
B1 | below the threshold
B2 | below the threshold

The binders below were run against IL16_1, Q14005 (assay: holdup assay). Settings: plain residues with an end cap or a label only (N-terminal biotin on a linker: ado-ado).
Set-up: key: below the threshold = too weak to quantify, mostly under pKd 3.1 to 4

Sequence of IL16_1, Q14005 (Q14005 210-306): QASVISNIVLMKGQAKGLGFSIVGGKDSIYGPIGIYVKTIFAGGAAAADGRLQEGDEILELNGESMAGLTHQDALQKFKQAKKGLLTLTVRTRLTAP

Binder | pKd
B1 | 3.58
B2 | below the threshold

What follows are binders tested against Inadl_4, Q8NI35 (assay: holdup assay). Settings: plain residues with an end cap or a label only (N-terminal biotin on a linker: ado-ado).
Set-up: key: below the threshold = too weak to quantify, mostly under pKd 3.1 to 4

Sequence of Inadl_4, Q8NI35 (Q8NI35 547-651): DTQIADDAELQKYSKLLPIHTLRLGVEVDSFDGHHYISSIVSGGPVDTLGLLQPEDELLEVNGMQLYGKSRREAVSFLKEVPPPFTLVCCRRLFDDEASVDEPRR

Binder | pKd
B1 | below the threshold
B2 | below the threshold

The binders below were run against LDB3, O75112 (assay: holdup assay). Settings: plain residues with an end cap or a label only (N-terminal biotin on a linker: ado-ado).
Set-up: key: below the threshold = too weak to quantify, mostly under pKd 3.1 to 4

Sequence of LDB3, O75112 (O75112 1-94): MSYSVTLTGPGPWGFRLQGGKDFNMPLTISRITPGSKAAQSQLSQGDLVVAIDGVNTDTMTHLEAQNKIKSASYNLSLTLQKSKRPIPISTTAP

Binder | pKd
B1 | below the threshold
B2 | below the threshold

These binders were tested against MAGI1_1, Q96QZ7 (assay: holdup assay). Settings: plain residues with an end cap or a label only (N-terminal biotin on a linker: ado-ado).
Set-up: key: below the threshold = too weak to quantify, mostly under pKd 3.1 to 4

Sequence of MAGI1_1, Q96QZ7 (Q96QZ7 1-106): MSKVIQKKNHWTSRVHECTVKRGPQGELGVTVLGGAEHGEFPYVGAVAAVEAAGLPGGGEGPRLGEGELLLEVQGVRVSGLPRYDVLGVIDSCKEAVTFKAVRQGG

Binder | pKd
B1 | below the threshold
B2 | below the threshold

What follows are binders tested against MAGI2_3, Q86UL8 (assay: holdup assay). Settings: plain residues with an end cap or a label only (N-terminal biotin on a linker: ado-ado).
Set-up: key: below the threshold = too weak to quantify, mostly under pKd 3.1 to 4

Sequence of MAGI2_3, Q86UL8 (Q86UL8 600-682): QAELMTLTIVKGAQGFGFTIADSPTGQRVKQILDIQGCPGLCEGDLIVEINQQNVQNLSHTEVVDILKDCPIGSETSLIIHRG

Binder | pKd
B1 | below the threshold
B2 | below the threshold

Each binder was assayed against MAST2, Q6P0Q8 (assay: holdup assay). Settings: plain residues with an end cap or a label only (N-terminal biotin on a linker: ado-ado).
Set-up: key: below the threshold = too weak to quantify, mostly under pKd 3.1 to 4

Sequence of MAST2, Q6P0Q8 (Q6P0Q8 1099-1202): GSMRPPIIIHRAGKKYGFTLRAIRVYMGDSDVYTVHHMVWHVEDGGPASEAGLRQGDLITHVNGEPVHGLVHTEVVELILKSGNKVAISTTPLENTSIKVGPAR

Binder | pKd
B1 | 4.79
B2 | 5.08

Each binder was assayed against T5, MPDZ_10, O75970 (assay: holdup assay). Settings: plain residues with an end cap or a label only (N-terminal biotin on a linker: ado-ado).
Set-up: key: below the threshold = too weak to quantify, mostly under pKd 3.1 to 4

Binder | pKd
B1 | below the threshold
B2 | below the threshold

What follows are binders tested against T6, MPDZ_5, O75970 (assay: holdup assay). Settings: plain residues with an end cap or a label only (N-terminal biotin on a linker: ado-ado).
Set-up: key: below the threshold = too weak to quantify, mostly under pKd 3.1 to 4

Binder | pKd
B1 | below the threshold
B2 | below the threshold

The binders below were run against T7, MPP7, Q5T2T1 (assay: holdup assay). Settings: plain residues with an end cap or a label only (N-terminal biotin on a linker: ado-ado).
Set-up: key: below the threshold = too weak to quantify, mostly under pKd 3.1 to 4

Binder | pKd
B1 | below the threshold
B2 | below the threshold

The binders below were run against NHERF2_2, Q15599 (assay: holdup assay). Settings: plain residues with an end cap or a label only (N-terminal biotin on a linker: ado-ado).
Set-up: key: below the threshold = too weak to quantify, mostly under pKd 3.1 to 4

Sequence of NHERF2_2, Q15599 (Q15599 142-238): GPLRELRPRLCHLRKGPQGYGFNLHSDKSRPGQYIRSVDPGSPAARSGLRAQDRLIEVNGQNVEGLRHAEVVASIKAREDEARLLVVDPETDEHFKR

Binder | pKd
B1 | 3.59
B2 | 4.18

Each binder was assayed against T8, NHERF3_1, Q5T2W1 (assay: holdup assay). Settings: plain residues with an end cap or a label only (N-terminal biotin on a linker: ado-ado).
Set-up: key: below the threshold = too weak to quantify, mostly under pKd 3.1 to 4

Binder | pKd
B1 | 4.07
B2 | below the threshold

The binders below were run against NHERF4_2, Q86UT5 (assay: holdup assay). Settings: plain residues with an end cap or a label only (N-terminal biotin on a linker: ado-ado).
Set-up: key: below the threshold = too weak to quantify, mostly under pKd 3.1 to 4

Sequence of NHERF4_2, Q86UT5 (Q86UT5 220-308): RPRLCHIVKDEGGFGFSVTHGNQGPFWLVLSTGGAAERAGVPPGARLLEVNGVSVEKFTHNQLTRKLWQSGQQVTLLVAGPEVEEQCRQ

Binder | pKd
B1 | below the threshold
B2 | below the threshold

What follows are binders tested against NHERF4_4, Q86UT5 (assay: holdup assay). Settings: plain residues with an end cap or a label only (N-terminal biotin on a linker: ado-ado).
Set-up: key: below the threshold = too weak to quantify, mostly under pKd 3.1 to 4

Sequence of NHERF4_4, Q86UT5 (Q86UT5 464-550): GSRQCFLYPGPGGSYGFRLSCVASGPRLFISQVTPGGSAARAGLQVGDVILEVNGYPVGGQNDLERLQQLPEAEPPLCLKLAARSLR

Binder | pKd
B1 | below the threshold
B2 | below the threshold

The binders below were run against NOS1, P29475 (assay: holdup assay). Settings: plain residues with an end cap or a label only (N-terminal biotin on a linker: ado-ado).
Set-up: key: below the threshold = too weak to quantify, mostly under pKd 3.1 to 4

Sequence of NOS1, P29475 (P29475 9-101): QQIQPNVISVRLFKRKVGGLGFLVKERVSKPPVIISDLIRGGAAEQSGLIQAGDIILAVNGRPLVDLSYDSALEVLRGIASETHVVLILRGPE

Binder | pKd
B1 | 3.65
B2 | below the threshold

Each binder was assayed against PARD3_3, Q8TEW0 (assay: holdup assay). Settings: plain residues with an end cap or a label only (N-terminal biotin on a linker: ado-ado).
Set-up: key: below the threshold = too weak to quantify, mostly under pKd 3.1 to 4

Sequence of PARD3_3, Q8TEW0 (Q8TEW0 582-685): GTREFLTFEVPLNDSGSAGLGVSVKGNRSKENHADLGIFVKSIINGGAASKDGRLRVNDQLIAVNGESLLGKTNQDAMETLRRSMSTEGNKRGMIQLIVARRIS

Binder | pKd
B1 | below the threshold
B2 | below the threshold

These binders were tested against T9, PDZD2_2, O15018 (assay: holdup assay). Settings: plain residues with an end cap or a label only (N-terminal biotin on a linker: ado-ado).
Set-up: key: below the threshold = too weak to quantify, mostly under pKd 3.1 to 4

Binder | pKd
B1 | below the threshold
B2 | 3.68

The binders below were run against PICK1, Q9NRD5 (assay: holdup assay). Settings: plain residues with an end cap or a label only (N-terminal biotin on a linker: ado-ado).
Set-up: key: below the threshold = too weak to quantify, mostly under pKd 3.1 to 4

Sequence of PICK1, Q9NRD5 (Q9NRD5 17-115): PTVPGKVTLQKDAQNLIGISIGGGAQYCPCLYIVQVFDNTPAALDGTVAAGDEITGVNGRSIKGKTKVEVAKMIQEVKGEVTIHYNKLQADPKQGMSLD

Binder | pKd
B1 | below the threshold
B2 | 3.91

Each binder was assayed against SCRIB_2, Q14160 (assay: holdup assay). Settings: plain residues with an end cap or a label only (N-terminal biotin on a linker: ado-ado).
Set-up: key: below the threshold = too weak to quantify, mostly under pKd 3.1 to 4

Sequence of SCRIB_2, Q14160 (Q14160 857-960): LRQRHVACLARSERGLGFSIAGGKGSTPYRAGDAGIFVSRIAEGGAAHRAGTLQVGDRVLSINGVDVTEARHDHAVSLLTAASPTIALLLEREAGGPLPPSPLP

Binder | pKd
B1 | below the threshold
B2 | below the threshold

The binders below were run against T10, TX1BP3, O14907 (assay: holdup assay). Settings: plain residues with an end cap or a label only (N-terminal biotin on a linker: ado-ado).
Set-up: key: below the threshold = too weak to quantify, mostly under pKd 3.1 to 4

Binder | pKd
B1 | 4.04
B2 | below the threshold
